Source: patent publication US20250304703A1 (AKESO BIOPHARMA, published 2025)

What was measured:
human IL-4RA-hFc [1] = target: T1, human IL-4RA-hFc (human, UniProt P24394 26-232); experiment: indirect ELISA, coated IL-4RA-hFc 1 ug/mL, 4-parameter fit
T1 construct: mature; no linker is stated
T1 sequence (looked up): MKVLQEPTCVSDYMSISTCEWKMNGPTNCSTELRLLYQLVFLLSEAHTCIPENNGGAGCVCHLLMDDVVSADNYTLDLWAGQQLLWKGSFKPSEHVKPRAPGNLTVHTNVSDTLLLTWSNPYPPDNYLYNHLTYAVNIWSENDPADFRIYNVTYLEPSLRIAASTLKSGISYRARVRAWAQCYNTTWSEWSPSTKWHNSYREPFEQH
Procedure: Procedures: The Elisa plates were coated with human IL-4RA-hFc or human IL-4RA-mFc and were incubated, and the target antibodies were added after blocking. […] The plates were incubated and washed before TMB (Neogen, 308177) was added for chromogenic reaction. At the end of the reaction, the absorbance at 450 nm was measured by a microplate reader. The data were analyzed and processed by SoftMax Pro 6.2.1.

human IL-4RA-hFc [2] = target: T1, human IL-4RA-hFc; experiment: competitive ELISA, competitor IL4-N-His (anti-His signal); antibody 3 ug/mL
Procedure: (§1) The Elisa plates were coated with human IL-4RA-hFc and blocked before the target antibodies were added. […] After the plates were washed, mouse anti-His, HRP (purchased from CoWin Biosciences, Cat No. CW0285A) was added for incubation. The plates were subjected to another wash. A chromogenic reaction was performed by adding TMB (Neogen, 308177) and was then terminated. The Elisa plates were put into a microplate reader immediately, and the OD value of each well in the Elisa plates was read at 450 nm. The data were analyzed and processed by SoftMax Pro 6.2.1.

human IL-4RA-hFc [3] = target: T1, human IL-4RA-hFc; experiment: competitive ELISA, competitor IL4-N-His, coated IL-4RA-hFc, 4-parameter fit
Procedure: as §1
By 4-parameter logistic regression of absorbance vs. antibody concentration, the blocking EC₅₀ of the antibodies was calculated.

B1: anti-human IL-4RA antibody 13E5 (antibody, V domains shown)
VH: EVQLQQSGPELVKPGASVKISCKTSGYTFTEYTIHWVKQNHGKSLEWIGGINPNNGGTVYNQNFKGKATLTVDKSSSTAYMELRSLTSEDSAVYYCARVRRGMDYWGQGTSVTVSS
VL: DIVMTQSHKFMSTSVGDRVSITCKASQDVTTAVAWYQQKPGQSPKLLIYSASYRYTGVPDRFTGSGSGTDFTFTISSVQAEDLAVYYCQQHYSAPWTFGGGTNLEIK
notes: also called murine antibody 13E5; monoclonal antibody of hybridoma cell line LT008 (IL-4RA-13E5), CCTCC NO: C2018131
EC50 (human IL-4RA-hFc [1]): 0.084 nM
OD 450 nm (human IL-4RA-hFc [2]): 0.053 OD
EC50 (human IL-4RA-hFc [3]): 3 nM
